This note sets out measurements from US20250197488A1 (MABWELL SHANGHAI BIOSCIENCE, published 2025).

The target of experiment [1] is T1, IL-11 (Cat. 12225-HNCE, Sino Biological Inc.) (UniProt P20809 22-199, limits assumed).
T1 sequence (looked up): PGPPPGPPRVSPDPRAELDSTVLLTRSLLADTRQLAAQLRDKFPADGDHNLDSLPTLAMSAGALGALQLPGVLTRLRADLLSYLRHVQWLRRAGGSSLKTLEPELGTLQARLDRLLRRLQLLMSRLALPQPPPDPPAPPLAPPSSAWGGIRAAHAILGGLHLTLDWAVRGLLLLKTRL
The experiment is described as follows: competition ELISA, IL-11/IL-11Rα/GP130 complex. Here is the method: The activity of the recombinant murine anti-IL-11 antibodies for blocking the formation of IL-11/IL-11Rα/GP130 complex was analyzed via competition ELISA. IL-11Rα-His (NP_004503.1, Met1-Val363, C-terminus-6-His Tag) was firstly added into ELISA plates to be coated overnight. Next day, samples were prepared as follows. […] After co-incubating and washing, an HRP conjugated anti-human Fc secondary antibody was added to develop the color which was then detected.
(§1) Then, light and heavy chain expression vectors for preparing mutant antibodies were constructed according to the method for preparing the recombinant antibodies provided in Example 4, using the mutant sequences shown in Table 3 which accordingly were linked with human IgG1 constant regions (SEQ ID NO. 13, and SEQ ID NO.14). Subsequently, the light chain and the heavy chain were reasonably matched and co-transfected into eukaryotic cells for transient expression, and then recombination protein samples of the mutant antibodies were obtained through affinity purification. The samples obtained were tested for affinity on Fortebio Octet, according to the method for measuring affinity provided in Example 1. Further, using the protocol provided in Example 3, hz8C8 and its affinity matured mutants were analyzed for their activity for blocking the formation of IL-11/IL-11Rα/GP130 complex.

In experiment [2] the target is T1, IL-11 (Cat. 12225-HNCE, Sino Biological …). The experiment is described as follows: cell-based or functional assay.
Experiment [3] addresses T2, human IL-11 (AAH12506.1, Pro22-Leu199) (human, UniProt P20809 22-199).
T2 construct: The range Pro22-Leu199 counts on AAH12506.1; The Octet runs say only 'human IL-11'; also called hIL-11
T2 chain: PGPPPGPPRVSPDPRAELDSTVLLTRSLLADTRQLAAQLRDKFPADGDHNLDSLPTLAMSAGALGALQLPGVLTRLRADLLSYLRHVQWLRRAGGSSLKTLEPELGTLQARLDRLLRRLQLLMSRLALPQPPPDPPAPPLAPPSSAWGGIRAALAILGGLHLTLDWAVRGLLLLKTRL
The experiment is described as follows: BLI (Octet), antibody captured, human IL-11 in solution. Here is the method: The affinity of the murine antibodies purified from the hybridoma supernatants was determined using an Octet QKe System instrument from Fortebio Inc. with an anti-mouse IgG Fc Capture biosensor to capture the Fc fragments of the antibodies, for which an anti-IL-11 antibody named “3C6-mFc” recombinantly expressed was used at the same concentration as a positive control. Specifically, a hybridoma supernatant was diluted with HBS-EP+ buffer (GE), and was allowed to pass through the surface of AMC probes (Cat: 18-5088, PALL), and so the antibody in the hybridoma supernatant was captured on the surface of the probes; then, human IL-11 diluted in the HBS-EP+ buffer (300 nM) was used as a mobile phase to react with the antibody captured on the surface of the probes. Both the binding and the dissociating were conducted for 300 seconds. When the experiment was finished, data from which response values of blank controls had been deducted was fitted using a 1:1 Langmuir binding model by software, and then kinetic constants for antigen-antibody binding were calculated. Binding signals were detected on the Octet QKe System instrument with Hy5C2, Hy8C8, Hy16B5, Hy18A10, and Hy18H10.
The affinity of hz18A10 and hz8C8 was determined according to the method provided in Example 1 using AHC bioprobes for capturing human Fc fragment instead, with other conditions unchanged. A recombinantly expressed anti-IL-11 antibody 3C6-hFc was used at the same concentration as a positive control.
as §1, with “1.” for “1. Further, using the protocol provided in Example 3, hz8C8 and its affinity matured mutants were analyzed for their activity for blocking the formation of IL-11/IL-11Rα/GP130 complex.”

B1: hz8C8-VHm1 + hz8C8-VLm7-m4 (antibody, human IgG1, kappa, V domains shown)
VH: EVQLVESGGGLVQPGGSLRLSCAASGFTFSSFGMHWVRQAPGKGLEWVAYITPGSNTIYYADTVKGRFTISRDNAKNSLYLQMNSLRAEDTAVYYCAREYYSYDEGFAYWGQGTLVTVSS
VL: EIVLTQSPATLSLSPGERATLSCSVSDLIPSQYLHWYQQKPGQAPRLLIYRTSNRASGIPARFSGSGSGTDFTLTISSLEPEDFAVYYCQQGVDVPFTFGQGTKLEIKR
notes: human IgG1 constant regions
Turning to B1, the half-inhibitory concentration (IC50) in experiment [1] worked out at 0.69 µg/mL. For the same molecule, in experiment [2], the “Blocking activity (IC50), STAT3-luc reporter” value (“Blocking activity (IC50)” below) was 0.021 µg/mL. In experiment [3], the equilibrium dissociation constant (Kd) was found to be 0.178 nM, the koff was 0.000178 s⁻¹ and the kon turned out to be 1e+06 M⁻¹ s⁻¹.

B2: hz8C8-VHm1-m3 + hz8C8-VLm7-m2 (antibody, human IgG1, kappa, V domains shown)
VH: EVQLVESGGGLVQPGGSLRLSCAASGFTFSSFGMHWVRQAPGKGLEWVAYITPGSNTIYYADTVKGRFTISRDNAKNSLYLQMNSLRAEDTAVYYCAREYSSYDEGFAYWGQGTLVTVSS
VL: EIVLTQSPATLSLSPGERATLSCSVSDLIPSQYLHWYQQKPGQAPRLLIYDASNLASGIPARFSGSGSGTDFTLTISSLEPEDFAVYYCQQGVDVPFTFGQGTKLEIKR
notes: human IgG1 constant regions
Turning to B2, the IC50 in experiment [1] is 0.67 µg/mL. Moreover, the “Blocking activity (IC50)” value in experiment [2] was determined as 0.009 µg/mL. Moreover, in experiment [3], the Kd is under 0.001 nM, the koff was under 1e-07 s⁻¹ and the kon was 945000 M⁻¹ s⁻¹.

B3: hz8C8-VHm1-m3 + hz8C8-VLm7 (antibody, human IgG1, kappa, V domains shown)
VH: EVQLVESGGGLVQPGGSLRLSCAASGFTFSSFGMHWVRQAPGKGLEWVAYITPGSNTIYYADTVKGRFTISRDNAKNSLYLQMNSLRAEDTAVYYCAREYSSYDEGFAYWGQGTLVTVSS
VL: EIVLTQSPATLSLSPGERATLSCSVSDLIPSQYLHWYQQKPGQAPRLLIYRTSNLASGIPARFSGSGSGTDFTLTISSLEPEDFAVYYCQQGVDVPFTFGQGTKLEIKR
notes: human IgG1 constant regions
As to B3, the IC50 in experiment [1] amounted to 0.83 µg/mL. For the same molecule, the “Blocking activity (IC50)” value in experiment [2] was determined as 0.053 µg/mL. Besides, in experiment [3], the Kd amounted to 0.0987 nM, the koff is 0.00011 s⁻¹ and the kon turned out to be 1.12e+06 M⁻¹ s⁻¹.

B4: hz8C8-VHm1 + hz8C8-VLm8 (antibody, human IgG1, kappa, V domains shown)
VH: EVQLVESGGGLVQPGGSLRLSCAASGFTFSSFGMHWVRQAPGKGLEWVAYITPGSNTIYYADTVKGRFTISRDNAKNSLYLQMNSLRAEDTAVYYCAREYYSYDEGFAYWGQGTLVTVSS
VL: EIVLTQSPATLSLSPGERATLSCSVSDLIPSQYLSWYQQKPGQAPRLLIYRTSNLASGIPARFSGSGSGTDFTLTISSLEPEDFAVYYCQQGVDVPFTFGQGTKLEIKR
notes: human IgG1 constant regions
As for B4, the IC50 in experiment [1] came out at 0.7 µg/mL. Moreover, the “Blocking activity (IC50)” value in experiment [2] turned out to be 0.01 µg/mL. For the same molecule, in experiment [3], the Kd is 0.0313 nM, the koff was determined as 2.97e-05 s⁻¹ and the kon came out at 948000 M⁻¹ s⁻¹.

B5: hz8C8-VHm1-m3 + hz8C8-VLm7-m4 (antibody, human IgG1, kappa, V domains shown)
VH: EVQLVESGGGLVQPGGSLRLSCAASGFTFSSFGMHWVRQAPGKGLEWVAYITPGSNTIYYADTVKGRFTISRDNAKNSLYLQMNSLRAEDTAVYYCAREYSSYDEGFAYWGQGTLVTVSS
VL: EIVLTQSPATLSLSPGERATLSCSVSDLIPSQYLHWYQQKPGQAPRLLIYRTSNRASGIPARFSGSGSGTDFTLTISSLEPEDFAVYYCQQGVDVPFTFGQGTKLEIKR
notes: human IgG1 constant regions
Regarding B5, the IC50 in experiment [1] came to 0.47 µg/mL. For the same molecule, the “Blocking activity (IC50)” value in experiment [2] turned out to be 0.02 µg/mL. Also, in experiment [3], the Kd is under 0.001 nM, the off-rate (koff) is under 1e-07 s⁻¹ and the kon came out at 901000 M⁻¹ s⁻¹.

B6: hz8C8-VHm1-m2 + hz8C8-VLm7 (antibody, human IgG1, kappa, V domains shown)
VH: EVQLVESGGGLVQPGGSLRLSCAASGFTFSSFGMHWVRQAPGKGLEWVASITPGSNTIYYADTVKGRFTISRDNAKNSLYLQMNSLRAEDTAVYYCAREYYSYDEGFAYWGQGTLVTVSS
VL: EIVLTQSPATLSLSPGERATLSCSVSDLIPSQYLHWYQQKPGQAPRLLIYRTSNLASGIPARFSGSGSGTDFTLTISSLEPEDFAVYYCQQGVDVPFTFGQGTKLEIKR
notes: human IgG1 constant regions
As to B6, the IC50 in experiment [1] was found to be 1.68 µg/mL. The “Blocking activity (IC50)” value in experiment [2] is 0.052 µg/mL. Moreover, in experiment [3], the Kd was 3.41 nM, the koff worked out at 0.00355 s⁻¹ and the kon amounted to 1.04e+06 M⁻¹ s⁻¹.

B7: hz8C8-VHm1-m3 + hz8C8-VLm7-m1 (antibody, human IgG1, kappa, V domains shown)
VH: EVQLVESGGGLVQPGGSLRLSCAASGFTFSSFGMHWVRQAPGKGLEWVAYITPGSNTIYYADTVKGRFTISRDNAKNSLYLQMNSLRAEDTAVYYCAREYSSYDEGFAYWGQGTLVTVSS
VL: EIVLTQSPATLSLSPGERATLSCSVSDLIPSQYLHWYQQKPGQAPRLLIYRASNLASGIPARFSGSGSGTDFTLTISSLEPEDFAVYYCQQGVDVPFTFGQGTKLEIKR
notes: human IgG1 constant regions
With B7, the IC50 in experiment [1] is 0.55 µg/mL. For the same molecule, the “Blocking activity (IC50)” value in experiment [2] is 0.01 µg/mL. Further, in experiment [3], the Kd worked out at 0.0609 nM, the koff turned out to be 5.81e-05 s⁻¹ and the kon was determined as 954000 M⁻¹ s⁻¹.

B8: hz8C8-VHm1-m4 + hz8C8-VLm7-m2 (antibody, human IgG1, kappa, V domains shown)
VH: EVQLVESGGGLVQPGGSLRLSCAASGFTFSSFGMHWVRQAPGKGLEWVSYITPGSNTIYYADTVKGRFTISRDNAKNSLYLQMNSLRAEDTAVYYCAREYYSYDEGFAYWGQGTLVTVSS
VL: EIVLTQSPATLSLSPGERATLSCSVSDLIPSQYLHWYQQKPGQAPRLLIYDASNLASGIPARFSGSGSGTDFTLTISSLEPEDFAVYYCQQGVDVPFTFGQGTKLEIKR
notes: human IgG1 constant regions
Turning to B8, the concentration for half-maximal inhibition (IC50) in experiment [1] was 0.79 µg/mL. Further, the “Blocking activity (IC50)” value in experiment [2] was determined as 0.004 µg/mL. For the same molecule, in experiment [3], the Kd is under 0.001 nM, the koff was under 1e-07 s⁻¹ and the kon came to 879000 M⁻¹ s⁻¹.

B9: hz8C8-VHm1-m1 + hz8C8-VLm7 (antibody, human IgG1, kappa, V domains shown)
VH: EVQLVESGGGLVQPGGSLRLSCAASGFTFSSYGMHWVRQAPGKGLEWVAYITPGSNTIYYADTVKGRFTISRDNAKNSLYLQMNSLRAEDTAVYYCAREYYSYDEGFAYWGQGTLVTVSS
VL: EIVLTQSPATLSLSPGERATLSCSVSDLIPSQYLHWYQQKPGQAPRLLIYRTSNLASGIPARFSGSGSGTDFTLTISSLEPEDFAVYYCQQGVDVPFTFGQGTKLEIKR
notes: human IgG1 constant regions
B9: in experiment [1], the IC50 stood at 0.75 µg/mL. In experiment [2], the “Blocking activity (IC50)” value was found to be 0.046 µg/mL. In experiment [3], the Kd was 0.125 nM, the koff worked out at 0.00013 s⁻¹ and the kon was 1.04e+06 M⁻¹ s⁻¹.

B10: hz8C8-VHm1-m3 + hz8C8-VLm7-m3 (antibody, human IgG1, kappa, V domains shown)
VH: EVQLVESGGGLVQPGGSLRLSCAASGFTFSSFGMHWVRQAPGKGLEWVAYITPGSNTIYYADTVKGRFTISRDNAKNSLYLQMNSLRAEDTAVYYCAREYSSYDEGFAYWGQGTLVTVSS
VL: EIVLTQSPATLSLSPGERATLSCSVSDLIPSQYLHWYQQKPGQAPRLLIYGASNLASGIPARFSGSGSGTDFTLTISSLEPEDFAVYYCQQGVDVPFTFGQGTKLEIKR
notes: human IgG1 constant regions
B10: the IC50 in experiment [1] came out at 0.78 µg/mL. In addition, in experiment [2], the “Blocking activity (IC50)” value is 0.022 µg/mL. Further, in experiment [3], the Kd was under 0.001 nM, the koff was under 1e-07 s⁻¹ and the kon is 972000 M⁻¹ s⁻¹.

B11: hz8C8-VHm1 + hz8C8-VLm9 (antibody, human IgG1, kappa, V domains shown)
VH: EVQLVESGGGLVQPGGSLRLSCAASGFTFSSFGMHWVRQAPGKGLEWVAYITPGSNTIYYADTVKGRFTISRDNAKNSLYLQMNSLRAEDTAVYYCAREYYSYDEGFAYWGQGTLVTVSS
VL: EIVLTQSPATLSLSPGERATLSCSVSDLIPSQYLAWYQQKPGQAPRLLIYRTSNLASGIPARFSGSGSGTDFTLTISSLEPEDFAVYYCQQGVDVPFTFGQGTKLEIKR
notes: human IgG1 constant regions
With B11, the IC50 in experiment [1] was 0.72 µg/mL. Further, the “Blocking activity (IC50)” value in experiment [2] worked out at 0.012 µg/mL. Moreover, in experiment [3], the Kd is 0.0354 nM, the koff was 3.45e-05 s⁻¹ and the kon came to 975000 M⁻¹ s⁻¹.
